Reference: publication doi:10.1101/2023.02.21.529469

Target: T1, His-Lmo2795 (RpiR family regulator) (UniProt Q8Y3P0)
T1 sequence: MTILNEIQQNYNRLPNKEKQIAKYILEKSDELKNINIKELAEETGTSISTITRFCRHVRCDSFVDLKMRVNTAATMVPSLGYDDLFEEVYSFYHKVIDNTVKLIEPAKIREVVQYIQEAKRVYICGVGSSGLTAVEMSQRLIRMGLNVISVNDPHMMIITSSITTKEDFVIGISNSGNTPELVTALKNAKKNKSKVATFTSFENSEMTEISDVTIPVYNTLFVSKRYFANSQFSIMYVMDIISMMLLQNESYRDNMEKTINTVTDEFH
Test: EMSA

Sequence: CGGAACACCCAACAAATTACCAATCGAATAAACTAACAAAGTCCTTTCAAGCGAAAGGACTTTTTATTTTTAACAGCAACGTCATTTTTTAAAGCTAGTTTCCGCAACTATCCACGCTAAAACATGAAAATCATTTTCATTTAATTGATATTGATAAAATCATTTTCTTATGATATAGTCTGTTTGAAAACGCATACTTTACACTGAAACACAGTATAGAGGAGGAGTATCAGTGGGCAATTCTGTTATGGAAAAAATCAAAGGTGGGTTAG (double strand) [lmo2795-nanE upstream (promoter) fragment]
- binding: binds
